Laboratory results from US10822723.

Experiments:
[1] = target: GST-iBox, recombinant 38 amino acid Inka box, Inka1 (166-203) [GST: P08515]
[2] = target: 13aa synthetic peptide of the Inka1 iBox-C with Pro(0)Ser substitution
[3] = target: 13aa synthetic peptide of the PAK4 AID with Pro(0)Ser substitution
[4] = target: 13aa synthetic peptide of the Inka1 iBox with Pro(0)Ser substitution

B1: 6His-PAK4cat, recombinant catalytic domain of PAK4 (286-591) (protein)
chain: PPGPRSPQREPQRVSHEQFRAALQLVVDPGDPRSYLDNFIKIGEGSTGIVCIATVRSSGKLVAVKKMDLRKQQRRELLFNEVVIMRDYQHENVVEMYNSYLVGDELWVVMEFLEGGALTDIVTHTRMNEEQIAAVCLAVLQALSVLHAQGVIHRDIKSDSILLTHDGRVKLSDFGFCAQVSKEVPRRKSLVGTPYWMAPELISRLPYGPEVDIWSLGIMVIEMVDGEPPYFNEPPLKAMKMIRDNLPPRLKNLHKVSPSLKGFLDRLLVRDPAQRATAAELLKHPFLAKAGPPASIVPLMRQNRTR
For B1, which “kinase activity, phosphorylation of GST-Raf13 (in vitro kinase assay)” value [1] is on record?
Its value is “is a potent of PAK4cat inhibitor in vitro”.

And the “phosphorylation of synthetic 13mer peptides in an array” value (“phosphorylation … in an array” for short) [2]?
The value was “Inka1-derived sequences were significantly better substrates”.

What about the “phosphorylation … in an array” value [3] of the same protein?
The value was “The AID-based peptide was phosphorylated as efficiently as Raf1 Ser338”.

And the “phosphorylation … in an array” value [4]?
Its value is “Inka1-derived sequences were significantly better substrates”.

B2: 6His-PAK1 (activated), PAK1 (1-545) (protein)
chain: MSNNGLDIQDKPPAPPMRNTSTMIGAGSKDAGTLNHGSKPLPPNPEEKKKKDRFYRSILPGDKTNKKKEKERPEISLPSDFEHTIHVGFDAVTGEFTGMPEQWARLLQTSNITKSEQKKNPQAVLDVLEFYNSKKTSNSQKYMSFTDKSAEDYNSSNALNVKAVSETPAVPPVSEDEDDDDDDATPPPVIAPRPEHTKSVYTRSVIEPLPVTPTRDVATSPISPTENNTTPPDALTRNTEKQKKKPKMSDEEILEKLRSIVSVGDPKKKYTRFEKIGQGASGTVYTAMDVATGQEVAIKQMNLQQQPKKELIINEILVMRENKNPNIVNYLDSYLVGDELWVVMEYLAGGSLTDVVTETCMDEGQIAAVCRECLQALEFLHSNQVIHRDIKSDNILLGMDGSVKLTDFGFCAQITPEQSKRSTMVGTPYWMAPEVVTRKAYGPKVDIWSLGIMAIEMIEGEPPYLNENPLRALYLIATNGTPELQNPEKLSAIFRDFLNRCLEMDVEKRGSAKELLQHQFLKIAKPLSSLTPLIAAAKEATKNNH
With B2 as the protein, how does the “kinase activity, phosphorylation of GST-Raf13 (in vitro kinase assay)” value [1] read?
The value was “does not affect PAK1”.
